Data on one molecule can be found in article PMC2801267.

Series [1] concerns the target Ku70/80 heterodimer (Ku);DNA-PKcs (human? (HeLa cells);human? (HeLa cells), UniProt P12956;P13010;P78527 1-609;1-732;1-4128, |). As to the kind of experiment: biotin pull-down.
A further series has as its target Ku70/80 heterodimer (Ku) (human? (HeLa cells), UniProt P12956;P13010 1-609;1-732). In words: biotin pull-down.

Chain of Ku70/80 heterodimer (Ku) (P12956 whole entry, chain 1 of 2): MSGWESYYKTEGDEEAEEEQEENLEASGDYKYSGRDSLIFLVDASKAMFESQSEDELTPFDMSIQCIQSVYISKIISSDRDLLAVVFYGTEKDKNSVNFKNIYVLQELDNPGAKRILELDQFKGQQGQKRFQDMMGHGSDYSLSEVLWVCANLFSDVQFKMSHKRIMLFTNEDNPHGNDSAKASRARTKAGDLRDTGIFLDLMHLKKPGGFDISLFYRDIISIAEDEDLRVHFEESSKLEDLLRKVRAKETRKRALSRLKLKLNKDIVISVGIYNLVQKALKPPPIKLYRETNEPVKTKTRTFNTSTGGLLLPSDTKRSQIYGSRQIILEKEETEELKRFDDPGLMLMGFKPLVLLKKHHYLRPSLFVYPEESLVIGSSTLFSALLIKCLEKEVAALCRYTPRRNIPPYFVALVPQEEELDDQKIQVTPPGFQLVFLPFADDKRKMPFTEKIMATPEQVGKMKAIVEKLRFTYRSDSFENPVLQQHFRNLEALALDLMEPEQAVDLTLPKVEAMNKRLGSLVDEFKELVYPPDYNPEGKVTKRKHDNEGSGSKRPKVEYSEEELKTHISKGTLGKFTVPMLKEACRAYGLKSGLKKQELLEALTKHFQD
Chain of Ku70/80 heterodimer (Ku) (P13010 whole entry, chain 2 of 2): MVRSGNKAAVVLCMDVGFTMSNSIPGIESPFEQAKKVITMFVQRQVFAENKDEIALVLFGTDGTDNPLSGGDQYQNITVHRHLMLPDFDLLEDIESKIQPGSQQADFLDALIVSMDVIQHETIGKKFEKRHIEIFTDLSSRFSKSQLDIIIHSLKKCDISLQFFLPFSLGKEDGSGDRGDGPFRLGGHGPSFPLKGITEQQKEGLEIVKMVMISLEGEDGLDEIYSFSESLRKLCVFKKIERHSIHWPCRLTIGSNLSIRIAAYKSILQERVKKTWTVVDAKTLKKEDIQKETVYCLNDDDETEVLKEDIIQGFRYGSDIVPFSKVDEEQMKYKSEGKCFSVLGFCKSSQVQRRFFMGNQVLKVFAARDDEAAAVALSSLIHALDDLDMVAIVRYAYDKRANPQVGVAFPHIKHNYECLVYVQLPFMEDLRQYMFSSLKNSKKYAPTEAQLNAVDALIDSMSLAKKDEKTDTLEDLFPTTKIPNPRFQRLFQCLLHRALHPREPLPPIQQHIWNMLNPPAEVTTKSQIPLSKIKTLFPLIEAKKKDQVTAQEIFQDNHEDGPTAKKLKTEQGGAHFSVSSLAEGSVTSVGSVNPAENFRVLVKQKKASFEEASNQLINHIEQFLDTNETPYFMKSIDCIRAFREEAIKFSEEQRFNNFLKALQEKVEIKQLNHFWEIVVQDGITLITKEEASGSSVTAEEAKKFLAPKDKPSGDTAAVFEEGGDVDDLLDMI

B1: 1 x biotin 40-bp dsDNA (dsDNA)
DNA 1: GGATACACAACAGACCGCAACACTCAGATTACTTTTCGCC
DNA 2: GGCGAAAAGTAATCTGAGTGTTGCGGTCTGTTGTGTATCC
modifications: 5'-biotin on oligo 1
On to B1, for which the binding result (in series [1]; with Ku70/80 heterodimer (Ku)) was “binds” throughout.
